Results: the DeepSol protein solubility set

Test: soluble on expression in E. coli; label from the status in PepcDB or PDB records

Sequence	soluble on expression in E. coli
MLLSSCQSLFSPAYQSTLRPSDNPQTVEQVQKNDPRAQMGAREHPRIVASYGGEYRDAKTERLVARIAGALTAVSENPQQSYRITILNSPAINAFALPGGYLYVTRGLLALANDASEVAAVLSHEMGHVTANHGIERQRREEAEVIASRVVAEVLSSDLAGKQALARGKLRLAAFSRQQELQADVIGVRMLGEAGYDPYASPRFLDSMAAYARFSSADPENDQSLDFLSSHPNTPQRIELARRHARAFGQEGQVGDRGRDWFLDGIDGLLYGDSPQEGYVRGQTFLHGTLGIRFDVPEGFVIDNKVEAVLATGPGDMAIRFDGVADPKQTSLANYLTSGWVAGLLPETVKETQINGLEAATARASADKWDFDVTVIRVGQQIFRFLTAVPKGNTQLDSIANVLRTSFRKMTPQEIASLKPLRVRVVTVKPGETVATMAARMMGTERKLDMFRMINAMSATATLQPGQRVKIISELEHHHHHH	not soluble
MGHHHHHHSHMTAPFFPRILGAVAFLNQETEPLTMNLQHHFLIAMPALQDPIFRRSVVYICEHNTNGAMGIIVNKPLENLKIEGILEKLKITPEPRDESIRLDKPVMLGGPLAEDRGFILHTPPSNFASSIRISDNTVMTTSRDVLETLGTDKQPSDVLVALGYASWEKGQLEQEILDNAWLTAPADLNILFKTPIADRWREAAKLIGVDILTMPGVAGHA	soluble
MIEPIWIDEQVALAIHERLISLHSGASGVRDKELLKSALARPLNLLAYDQQADVIHLAAAYTAGILQNHPFVDRNKRTGFVVGVLFLELNGYRFTAAEEDSAQAVIALAAGSLDEARFKLFLADNSIPV	not soluble
SLCQEKHTHTHSQKHLKAVCNRLSRTIGHLSAIKRMVENDKDCSEILIQLAAVKAEVNNTAKVVLKEHLAHCMVHAIEENDIQSIEELNKAIDMFMK	soluble
MGSDKIHHHHHHMKLIATDMDGTLLNDERKISKENAEAIKAAQQDGIHVVVATGRDFKEASMPLKEAGLTCPILCVNGAEERSANGELIHAVSLAKNEALTILDILTAADVYFEVYTNRGAFTDDYEKGLEIVIDVLQSAGSDDSYEKMREIAKHRFESGAVQLTEDYTKLIDSTAVYKFLAFSRDETKRQAAKDDLEKKDVFSVSASASDNLEITHWQAQKGIALRRLAERLGINSDDVMAIGDNLNDVSMLKYAGTAVAMENGEAEVKQLADFVTASNEDNGVAKAINKWLK	not soluble
MTMKMSGTEIQKHFKTLKGTIAITSIEDGDGSHVVWTFDFEKVHKDIDDSHSIIDETVKYLKELDEVLLKFHE	soluble
MSLNITPHDQTGSQLQDSTLSQRAIQTVRYINNINDWRYNNPSQKDGVIPDSAFGWSSLPELHNVLQADRVYVYQPDQPGLMSALLAQSRHSALVGKVVARRLLDSFGNDMQVNVPDSIADGSLVYLNEGHHHHHH	soluble
MSLRNEVQFELFGDYALFTDPLTKIGGEKLSYSVPTYQALKGIAESIYWKPTIVFVIDELRVMKPIQMESKGVRPIEYGGGNTLAHYTYLKDVHYQVKAHFEFNLHRPDLAFDRNEGKHYSILQRSLKAGGRRDIFLGARECQGYVAPCEFGSGDGFYDGQGKYHLGTMVHGFNYPDETGQHQLDVRLWSAVMENGYIQFPRPEDCPIVRPVKEMEPKIFNPDNVQSAEQLLHDLGGEEGHHHHHH	soluble
MTSIDVTEIIKSSTSSLYQPARKKSRFDDSASSSSQAGQPKPEDILAALEADQSNYVALDDVQVKKLVIQLDKKMRLNREQRVKNPDDAQKFMESEIELDKAIQEMHSLASQPDLYGSFVEVNGVEILLQLLGHENTDIVCATLSLLRELTDDDVMNEGEDGAAELIESLVSGSIITTLLACVERLDESVKDEADGVHNALGVVDNMIGFRDDITEECVKHGFTVWLLKRCFQKGAFDANKMYASELLSVILQTSDTAKAKLTEKIDGIDILLRTIAVYKKNDPANVDEREYMENLFNSLCAALMHPANRKKFLDGEGLQLMNLMLREKKQARQSALKVLNHATSGDEGIENCNKLVEMLGLRTIFPLFMRTPSKTKRKDTTPDEHEEHVCTILSSLLAACSENHRQRIVQKFVEHEHEKVDRAVELFLKYKEKVQRFELKKKRQSQEAGTSEDDDPDRAYLDKLDNGLYTLQRLTLILGEVAVGVESARLREEKLFQMKMSQNRLDLMLCPIIQEYSDNLGDDANIEQERVLVMLSKIEDFYK	not soluble
MTTFSHSSTTPSVSVTTASGNNQSQLVATPVPDEQRISFWPQHFGLIPQWVTLEPRVFGWMDRLCEDYCGGIWNLYTLNNGGAFIAPEPDEDDGETWILFNAMNGNRAEMSPEAAGIAACLMTYSHHACRTECYAMTVHYYRLRDYALQHPECSAIMRIID	not soluble
